Square brackets hold non-standard residues; d marks the D form. Ends that are not written are not given here. * marks the point of attachment. dimethylgly‑t‑butylgly‑cys‑gly = CN(C)CC(=O)N[C@H](C(=O)N[C@@H](CS)C(=O)NCC(=O)*)C(C)(C)C; Cyclopropanecarbonyl = O=C(C1CC1)*; Nle = CCCC[C@H](N)C(=O)O; For = O=C*
T1: N-formyl-methionyl-leucyl-phenylalanine (fMLF) receptor on elicited rat peritoneal neutrophils (rat, UniProt D4A7Q2 1-355)
T1 construct: Native receptor on whole neutrophils (PMNs); also called Rat FPR; formyl peptide receptor
T1 sequence: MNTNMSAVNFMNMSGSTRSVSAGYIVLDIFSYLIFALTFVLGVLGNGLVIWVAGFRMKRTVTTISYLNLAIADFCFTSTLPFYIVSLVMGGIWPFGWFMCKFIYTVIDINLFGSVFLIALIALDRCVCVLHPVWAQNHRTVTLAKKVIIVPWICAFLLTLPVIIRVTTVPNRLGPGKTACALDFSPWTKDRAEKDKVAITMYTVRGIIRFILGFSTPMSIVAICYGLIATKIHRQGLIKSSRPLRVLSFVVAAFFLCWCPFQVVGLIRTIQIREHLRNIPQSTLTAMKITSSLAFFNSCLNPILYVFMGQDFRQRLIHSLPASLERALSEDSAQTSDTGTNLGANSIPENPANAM

T2: N-formyl-methionyl-leucyl-phenylalanine (fMLF) receptor on human neutrophils (human, UniProt P21462 1-350)
T2 construct: whole, on cells; Native receptor on whole neutrophils from healthy volunteers; also called Human FPR; formyl peptide receptor
T2 sequence (looked up): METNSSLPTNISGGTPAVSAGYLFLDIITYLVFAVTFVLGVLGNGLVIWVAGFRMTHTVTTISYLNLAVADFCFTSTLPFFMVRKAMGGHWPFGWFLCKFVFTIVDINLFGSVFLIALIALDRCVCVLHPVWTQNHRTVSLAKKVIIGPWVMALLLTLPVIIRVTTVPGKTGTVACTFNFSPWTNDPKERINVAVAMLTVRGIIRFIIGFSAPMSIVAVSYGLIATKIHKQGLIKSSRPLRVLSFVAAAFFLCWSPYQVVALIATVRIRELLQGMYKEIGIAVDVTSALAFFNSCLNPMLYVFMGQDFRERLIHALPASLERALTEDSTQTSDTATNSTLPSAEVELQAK


Columns and labels:
[1] = target: N-formyl-methionyl-leucyl-phenylalanine (fMLF) receptor on elicited rat peritoneal neutrophils (rat) (UniProt D4A7Q2); assay: cell-based or functional assay
[2] = target: N-formyl-methionyl-leucyl-phenylalanine (fMLF) receptor on human neutrophils (human) (UniProt P21462); assay: competition with 6 nM 3H-fMLF for binding to human neutrophils
[3] = target: N-formyl-methionyl-leucyl-phenylalanine (fMLF) receptor on elicited rat peritoneal neutrophils (rat) (UniProt D4A7Q2); assay: Scatchard analysis of 3H-fMLF saturation binding to elicited rat peritoneal neutrophils
[4] = target: N-formyl-methionyl-leucyl-phenylalanine (fMLF) receptor on elicited rat peritoneal neutrophils (rat) (UniProt D4A7Q2); assay: saturation binding of 3H-fMLF to elicited rat peritoneal neutrophils, one-site fit (Prism)
[5] = target: N-formyl-methionyl-leucyl-phenylalanine (fMLF) receptor on elicited rat peritoneal neutrophils (rat) (UniProt D4A7Q2); assay: Scatchard transformation of the 3H-fMLF binding isotherm on elicited rat peritoneal neutrophils
[6] = target: N-formyl-methionyl-leucyl-phenylalanine (fMLF) receptor on elicited rat peritoneal neutrophils (rat) (UniProt D4A7Q2); assay: competition with 6 nM 3H-fMLF for binding to elicited rat peritoneal neutrophils, 4 C, filter harvest
[7] = target: T1, N-formyl-methionyl-leucyl-phenylalanine …; assay: competition with 6 nM 3H-fMLF on elicited rat neutrophils
Experimental: (§1) Neutrophils isolated by peritoneal lavage were washed twice with 1 mL of HBSS− (without calcium chloride, magnesium chloride and magnesium sulfate) and centrifuged for ten minutes at 2000 rpms following each wash. PMNs utilized in functional assays were centrifuged at 25° C. while those used in binding assays were centrifuged at 4° C. to prevent internalization. A cold H_2O RBC lysis was then performed with the addition of 9 mL of sterile ice-cold H_2O and 1 mL of phosphate buffered saline (PBS) solution containing 0.1 M phosphate buffer, 0.027 M KCl and 1.37 M NaCl following resuspension of the sample in 1 mL of HBSS−. Centrifugation was subsequently performed for ten minutes at 1600 rpms. White blood cell (WBC) differential stain containing saline, 2% acidic acid and phenol violet dye was used to identify the neutrophil population and trypan blue exclusion was used to determine viability of cells.
(§2) Total binding in the competition assays was assessed in the presence of 1.0 ×10^6 PMNs per sample while non-specific binding was determined in the absence of cells. Each condition was performed in quadruplicate.

[8] = target: T1, N-formyl-methionyl-leucyl-phenylalanine …; assay: competition with 6 nM 3H-fMLF for binding to elicited rat peritoneal neutrophils, 4 C, filter harvest
Experimental: as §1, §2

[9] = target: T2, N-formyl-methionyl-leucyl-phenylalanine …; assay: competition with 6 nM 3H-fMLF for binding to human neutrophils
[10] = target: T1, N-formyl-methionyl-leucyl-phenylalanine …; assay: cell-based or functional assay

Molecule | MPO release, % Control (1 uM) [1] | MPO release, % Control (10 uM) [1] | fold more potent than N-t-BocMLF [7] | IC50 [8] | further results
2-methoxyacetyl-NleLFK (peptide) | 95 % control | 97.1 % control |  |  | 
N-formyl-methionyl-leucyl-phenylalanine (peptide) |  |  |  |  | EC50 of myeloperoxidase release from elicited rat PMNs [1]: 110 nM; IC50 [2]: 5 nM; Kd [3]: 6.4 nM; binding sites per cell (binding sites per cell) [3]: 41000; Binding Sites/Cell (binding sites/cell) [4]: 40000; Kd [4]: 6.1 nM; x-intercept of Scatchard transformation [5]: 34; IC50 [6]: 50 nM
N-tert-butyloxycarbonylated-methionyl-leucyl-phenylalanine (peptide) |  |  |  |  | IC50 [6]: 9300 nM
adamantylcarbonyl-NleLFK (peptide) | 70.5 % control | 71.7 % control |  |  | % Control MPO Release (10 uM capping group + 0.1 uM fMLF) [1]: 129 % control; % Control MPO release (1 uM capping group + 0.1 uM fMLF) [1]: 132 % control
cyclopropylcarbonyl-NleLFK (peptide) | 108 % control | 91.8 % control |  |  | 
furoyl-NleLFK (peptide) | 93 % control | 102 % control |  |  | 
phenylthioacetyl-NleLFK (peptide) | 139 % control | 120 % control |  |  | 
Cyclopropanecarbonyl-[Nle]LFWHK(dimethylgly‑t‑butylgly‑cys‑gly)G-OH (also: ReO (rhenium oxo) complex with Lys6 side-chain chelator, Rhenium complex as tested; also called ReORP553 17-04; RP553-17-04) [ReO-CyclopropylCONH-nleu-leu-phe-trp-his-lys(dimethylgly-t-butylgly-cys-gly)-gly-OH] |  |  | ≥ 1.5 fold | 1770 nM | 
Cyclopropanecarbonyl-[Nle]LFWEK(dimethylgly‑t‑butylgly‑cys‑gly)G-OH (also: ReO (rhenium oxo) complex with Lys6 side-chain chelator, Rhenium complex as tested; also called ReORP553 17-01; RP553-17-01) [ReO-CyclopropylCONH-nleu-leu-phe-trp-glu-lys(dimethylgly-t-butylgly-cys-gly)-gly-OH] |  |  | ≥ 1.5 fold | 730 nM | fold greater binding affinity than N-t-BocMLF [7]: ~12 fold; fold less binding affinity than fMLF [7]: ~15 fold; IC50 [9]: 140 nM
Cyclopropanecarbonyl-[Nle]LFSKK(dimethylgly‑t‑butylgly‑cys‑gly)G-OH (also: ReO (rhenium oxo) complex with Lys6 side-chain chelator, Rhenium complex as tested; also called ReORP553 17-08; RP553-17-08) [ReO-CyclopropylCONH-nleu-leu-phe-ser-lys-lys(dimethylgly-t-butylgly-cys-gly)-gly-OH] |  |  | ≥ 1.5 fold | 4950 nM | 
Cyclopropanecarbonyl-[Nle]LFYKK(dimethylgly‑t‑butylgly‑cys‑gly)G-OH (also: ReO (rhenium oxo) complex with Lys6 side-chain chelator, Rhenium complex as tested; also called ReORP553 17-09; RP553-17-09) [ReO-CyclopropylCONH-nleu-leu-phe-tyr-lys-lys(dimethylgly-t-butylgly-cys-gly)-gly-OH] |  |  | ≥ 1.5 fold | 5930 nM | 
For-MLFK [N-formyl-methionyl-leucyl-phenylalanyl-lysine] |  |  |  |  | EC50 of myeloperoxidase release from elicited rat PMNs [10]: 140 nM

Second part, led by results:

MPO release, % Control (1 uM) [1] | MPO release, % Control (10 uM) [1] | fold more potent than N-t-BocMLF [7] | IC50 [8] | Molecule | further results
118 % control | 176 % control |  |  | 2-acetamido-5-thiazolesulfonyl-NleLFK (peptide) | 
117 % control | 130 % control |  |  | 2-quinoxazoyl-NleLFK (peptide) | % Control MPO Release (10 uM capping group + 0.1 uM fMLF) [1]: 240 % control; % Control MPO release (1 uM capping group + 0.1 uM fMLF) [1]: 323 % control
134 % control | 229 % control |  |  | 3-but-1-enoxycarbonyl-NleLFK (peptide) | 
114 % control | 110 % control |  |  | N,N-diethylcarbamoyl-NleLFK (peptide) | % Control MPO Release (10 uM capping group + 0.1 uM fMLF) [1]: 250 % control; % Control MPO release (1 uM capping group + 0.1 uM fMLF) [1]: 283 % control
143 % control | 125 % control |  |  | N,N-diphenylcarbamoyl-NleLFK (peptide) | % Control MPO Release (10 uM capping group + 0.1 uM fMLF) [1]: 186 % control; % Control MPO release (1 uM capping group + 0.1 uM fMLF) [1]: 322 % control
94.7 % control | 68 % control |  |  | N-phenyl-N-methylcarbamoyl-NleLFK (peptide) | % Control MPO Release (10 uM capping group + 0.1 uM fMLF) [1]: 121 % control; % Control MPO release (1 uM capping group + 0.1 uM fMLF) [1]: 171 % control
84.1 % control | 59.9 % control |  |  | fluorenylmethylcarbonyl-NleLFK (peptide) | % Control MPO Release (10 uM capping group + 0.1 uM fMLF) [1]: 109 % control; % Control MPO release (1 uM capping group + 0.1 uM fMLF) [1]: 162 % control
133 % control | 196 % control |  |  | trans-cinnamoyl-NleLFK (peptide) | 
 |  | ≥ 1.5 fold | 1220 nM | Cyclopropanecarbonyl-[Nle]LFYHK(dimethylgly‑t‑butylgly‑cys‑gly)G-OH (also: ReO (rhenium oxo) complex with Lys6 side-chain chelator, Rhenium complex as tested; also called ReORP553 17-06; RP553-17-06) [ReO-CyclopropylCONH-nleu-leu-phe-tyr-his-lys(dimethylgly-t-butylgly-cys-gly)-gly-OH] | 
 |  | ≥ 1.5 fold | 760 nM | Cyclopropanecarbonyl-[Nle]LFWKK(dimethylgly‑t‑butylgly‑cys‑gly)G-OH (also: ReO (rhenium oxo) complex with Lys6 side-chain chelator, Rhenium complex as tested; also called ReORP553 17-07; RP553-17-07) [ReO-CyclopropylCONH-nleu-leu-phe-trp-lys-lys(dimethylgly-t-butylgly-cys-gly)-gly-OH] | 
 |  | ≥ 1.5 fold | 2310 nM | Cyclopropanecarbonyl-[Nle]LFSEKG-OH (not fully specified (residue 6); printed as ReO-CyclopropylCONH-nleu-leu-phe-ser-glu-lys(dimethylgly-t-butylgly-cys-gly)-gly-OH; also: ReO (rhenium oxo) complex on the side-chain chelate, Rhenium complex as tested; also called ReORP553 17-02; RP553-17-02) [ReO-CyclopropylCONH-nleu-leu-phe-ser-glu-lys(dimethylgly-t-butylgly-cys-gly)-gly-OH] | 
 |  | ≥ 1.5 fold | 1010 nM | Cyclopropanecarbonyl-[Nle]LFSHK(dimethylgly‑t‑butylgly‑cys‑gly)G-OH (also: ReO (rhenium oxo) complex with Lys6 side-chain chelator, Rhenium complex as tested; also called ReORP553 17-05; RP553-17-05) [ReO-CyclopropylCONH-nleu-leu-phe-ser-his-lys(dimethylgly-t-butylgly-cys-gly)-gly-OH] | 

From patent US6872536 (BRACCO IMAGING S P A, dated 2005)
